This passage reports Kd results from article PMC5601406 (2017).

In this experiment the target is SN (Staphylococcus nuclease scaffold protein) (Staphylococcus aureus, UniProt Q5HHM4). As to the kind of experiment: ELISA.

B1: SmpB (protein)
chain: MSKKNSKNKAGSNTIALNRSARHEYFIEEKIEAGLSLQGWEVKSLRAGKANISEAYVIFRDGEAYLFGSSFLPLQAASSHVVCDPTRTRKLLLSRRELDKLESLIARQGYTVVPLALYWKQCWVKVEIGLVKGKKEHDKREDTKAREWDREKARIMKNKHRG
With B1, the dissociation constant Kd (in general, a measure of binding affinity in units of concentration) came out at 1380 nM.
